± gives the half width of the 95% confidence interval.
What was measured:
[1] = folding stability dG unfold from chymotrypsin proteolysis; higher = more stable
Method in brief: (§1)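 Sequencing followed digestion of designed mini-proteins with trypsin and chymotrypsin, each at 11 concentrations in threefold dilutions together with a no-protease condition. The mini-proteins were under 80 residues, had no cysteine, sat in a PA-tagged cDNA display construct, and were kept only if AlphaFold2 dimer inter-PAE was above 15. From the counts, Bayesian fitting gave K50, and unfolding free energy was derived against a sequence-predicted unfolded-state K50 and a shared folded-state K50, per protease or combined.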

[2] = folding stability dG unfold from trypsin proteolysis; higher = more stable
Method in brief: as §1

[3] = folding stability dG unfold (combined trypsin and chymotrypsin); higher = more stable
Method in brief: as §1

Row | Sequence | folding stability dG unfold [1] | folding stability dG unfold [2] | folding stability dG unfold [3]
1 | SAGGSATKELVLEIAEEIAPRFQKEGWPIKRVTVKVVRTPDGQVTIPVRIRFPDGKPIMQWNITIPSAGGSA [r15_232_TrROS] | 0.00828 ± 0.36 kcal/mol | 1.03 ± 0.055 kcal/mol | 0.779 ± 0.17 kcal/mol
2 | SAGGSATKVIYGMSVEEIRAAIKAGAKKIIIVADTEEQKKAAAEELEKEYNIKIEVKKIKPKKKKKSAGGSA [r15_243_TrROS_Hall] | 2.22 ± 0.039 kcal/mol | 0.83 ± 0.065 kcal/mol | 1.89 ± 0.17 kcal/mol
3 | SAGGSATPEEIAKKFFENHPELEPVEVKLEKFKIPGLKIWVVKVEITLKFKDNSKKKIPVVAVFPVSAGGSA [r15_266_TrMRF] | 3.01 ± 0.039 kcal/mol | 2.02 ± 0.066 kcal/mol | 2.72 ± 0.074 kcal/mol
4 | SAGGSATVTVTLVVRDPATGELTTVTATVTLEAAPAPVSVSLSLSLSRDPNGNLSLSLSVSVTVEGSAGGSA [r2_326_TrROS_Hall] | 5.93 ± 0.13 kcal/mol | 4.02 ± 0.094 kcal/mol | > 6 kcal/mol
5 | SAGGSAVEFTEPGAELLSEEKLPDGTVVKRVLLPDGSVLLLLPDNSIKTRSLSNPNTSLSEWDPELSAGGSA [r15_692_JUSTAS] | 0.332 ± 0.32 kcal/mol | 0.613 ± 0.17 kcal/mol | 0.491 ± 0.26 kcal/mol
6 | SAGGSAVRIKVWPPNGKEQWIPIPSSMTPSTVQEMAENLADDWQEQNGNKNVKVEVDPDNGWIRIRSAGGSA [r15_33_TrROS] | 0.197 ± 0.084 kcal/mol | -1.02 ± 0.3 kcal/mol | -0.0158 ± 0.066 kcal/mol
7 | SAGGSAVTITVDDFEDIEDAEITLTRPDGRPVVARVRVEKGEGAPRVTVLWREPGSGRYRVETFPLSAGGSA [r15_1006_TrMRF] | 1.49 ± 0.1 kcal/mol | 0.925 ± 0.074 kcal/mol | 1.28 ± 0.07 kcal/mol
8 | SAGGSAWIRINSPEMVEAFAKELKDEGWKLKDVDVQRDPNNGNVWFEIPIEHPNNGKKRELEIWFRSAGGSA [r15_123_TrROS] | -0.0873 ± 0.2 kcal/mol | 0.368 ± 0.077 kcal/mol | 0.141 ± 0.11 kcal/mol
9 | SAGGSAWIWITYQFPPGGTLEQAKEQIVNYLQRLFGWKIEIPDIEVEREGNNWTVTFPIKIEPLPGSAGGSA [r15_105_TrROS] | 4.4 ± 0.098 kcal/mol | 3.7 ± 0.16 kcal/mol | 4.18 ± 0.24 kcal/mol
10 | SAGGSDKEEKEKEIDIRIVQVPWDDARELAEESDDPVIFMLPDGHIHIFKGDGKVEPFPIPDPEEFSAGGSA [r2_34_TrROS] | 0.199 ± 0.15 kcal/mol | -0.288 ± 0.071 kcal/mol | 0.0224 ± 0.12 kcal/mol
11 | SAGGSDVEIEVFENAIIITIPLDLDNGKGETVEVRIIAPFTPDGRPIFRIEVINPDSDEVVTFTFPSAGGSA [r2_484_TrMRF] | 2.766 ± 0.017 kcal/mol | 2.66 ± 0.081 kcal/mol | 2.71 ± 0.068 kcal/mol
12 | SAGGSDYYIRVRIRIYKPTPEDMQEGKPIPEVEIWFPFDSVEEIKEFLENLPPNIKVDVDWFPPEDSAGGSA [r2_25_TrROS] | 4.21 ± 0.11 kcal/mol | 3.35 ± 0.073 kcal/mol | 3.89 ± 0.14 kcal/mol
13 | SAGGSEAIKEALELAKENPGKTVEVEIKNEDGSIYKIKIEVKEGKVVKVEVEKVKKEEVLSEEEKKSAGGSA [r2_263_TrROS_Hall] | 2.49 ± 0.043 kcal/mol | 1.01 ± 0.1 kcal/mol | 2.12 ± 0.1 kcal/mol
14 | SAGGSEALTKNLPGVKEIKIEVEPTEVALSPELAKLLPNLPGVKFTVPSVKIDIKIEYPGTPDGTLSAGGSA [r2_404_TrMRF] | -0.659 ± 0.37 kcal/mol | 0.133 ± 0.088 kcal/mol | -0.053 ± 0.15 kcal/mol
15 | SAGGSEDRYLVHVLVRFPDELRELYLEARSPEEVERSVRRAIEELYPERLEDVEVVVFARPVSEPLSAGGSA [r2_111_TrMRF] | 1.91 ± 0.081 kcal/mol | 2.38 ± 0.038 kcal/mol | 2.14 ± 0.061 kcal/mol
16 | SAGGSEEEIKKKIEEIAKKRGTKIKSITIKKLPDGSLLATVTLEDNPNTTIEFKVEKNKVEITKINKSAGGS [r8_432_JUSTAS] | 2.93 ± 0.051 kcal/mol | 1.73 ± 0.068 kcal/mol | 2.61 ± 0.066 kcal/mol
17 | SAGGSEEKVFEFEVVEVTSVEVKEDGTVTIEVTVRLENGLLLTVRVTFDLATNEVTIEVELRPLPESAGGSA [r2_321_TrROS_Hall] | 4.49 ± 0.19 kcal/mol | 3.38 ± 0.35 kcal/mol | 4.41 ± 0.2 kcal/mol
18 | SAGGSEEVEEEPPVVVTVRLTIELTLADGSKVRVEVELVRTADGRLLLKIRVVNEDTGEVYEFTFPSAGGSA [r2_484_TrROS_Hall] | 4.86 ± 0.23 kcal/mol | 3.31 ± 0.24 kcal/mol | 4.6 ± 0.19 kcal/mol
